Test results as given in patent US20210317225A1 (Genmab, published 2021).

Tests used:
[1] = molecular target: Human CD137 (TNR9_Human) (human, UniProt Q07011 24-255); assay: cell-based or functional assay
[2] = molecular target: Human CD40 (human, UniProt P25942 21-277); assay: cell-based or functional assay
Human CD40, sequence (P25942 21-277): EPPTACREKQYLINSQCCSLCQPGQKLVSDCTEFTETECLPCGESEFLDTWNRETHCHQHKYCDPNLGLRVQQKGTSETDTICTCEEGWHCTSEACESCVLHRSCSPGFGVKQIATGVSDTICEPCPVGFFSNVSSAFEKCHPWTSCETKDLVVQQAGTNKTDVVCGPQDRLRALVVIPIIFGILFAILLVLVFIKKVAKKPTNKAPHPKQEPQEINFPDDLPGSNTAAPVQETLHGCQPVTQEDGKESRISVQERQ

Human CD137 (TNR9_Human), sequence (Q07011 24-255): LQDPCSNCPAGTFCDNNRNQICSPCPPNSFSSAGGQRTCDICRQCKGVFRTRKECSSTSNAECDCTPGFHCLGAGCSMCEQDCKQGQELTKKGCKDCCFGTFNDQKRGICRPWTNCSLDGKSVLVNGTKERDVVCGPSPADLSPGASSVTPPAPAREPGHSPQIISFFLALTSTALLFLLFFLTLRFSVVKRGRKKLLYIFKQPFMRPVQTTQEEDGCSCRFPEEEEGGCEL

luciferase activity (RLU) of NF-KB/293/GFP-Luc cells transduced with CD137, incubated with K562_CD40 [1] [ng/mL]	luciferase activity (RLU) of NF-KB/293/GFP-Luc cells transduced with CD40, incubated with K562_CD137 [2] [ng/mL]	Binder
~100	~100	CD40-001-FEALxCD137-011-FEAR (bispecific antibody, human IgG1, kappa) heavy 1: EVQLQQSGPDLVKPGASVKISCKTSGYTFTEYIMHWVKQSHGKSLEWIGGIIPNNGGTSYNQKFKDKATMTVDKSSSTGYMELRSLTSEDSAVYYCTRREVYGRNYYALDYWGQGTLVTVSSASTKGPSVFPLAPSSKSTSGGTAALGCLVKDYFPEPVTVSWNSGALTSGVHTFPAVLQSSGLYSLSSVVTVPSSSLGTQTYICNVNHKPSNTKVDKRVEPKSCDKTHTCPPCPAPEFEGGPSVFLFPPKPKDTLMISRTPEVTCVVVAVSHEDPEVKFNWYVDGVEVHNAKTKPREEQYNSTYRVVSVLTVLHQDWLNGKEYKCKVSNKALPAPIEKTISKAKGQPREPQVYTLPPSREEMTKNQVSLTCLVKGFYPSDIAVEWESNGQPENNYKTTPPVLDSDGSFLLYSKLTVDKSRWQQGNVFSCSVMHEALHNHYTQKSLSLSPGK light 1: DIQMTQTTSSLSASLGDRVTITCSASQGINNYLNWYQQKPDGTVKLLIYYTSSLHSGVPSRFSGSGSGTDYSLTISNLEPEDIATYYCQQYSNLPYTFGGGTKLEIKRTVAAPSVFIFPPSDEQLKSGTASVVCLLNNFYPREAKVQWKVDNALQSGNSQESVTEQDSKDSTYSLSSTLTLSKADYEKHKVYACEVTHQGLSSPVTKSFNRGEC heavy 2: QSLEESGGRLVTPGTPLTLTCTVSGIDLSSYHMCWVRQAPGKGLEYIGYIAYGGNTYYANWAKGRFTISKTSTTVDLRITSPTTEDTATYFCARGYSEDSYWGLWGPGTLVTVSSASTKGPSVFPLAPSSKSTSGGTAALGCLVKDYFPEPVTVSWNSGALTSGVHTFPAVLQSSGLYSLSSVVTVPSSSLGTQTYICNVNHKPSNTKVDKRVEPKSCDKTHTCPPCPAPEFEGGPSVFLFPPKPKDTLMISRTPEVTCVVVAVSHEDPEVKFNWYVDGVEVHNAKTKPREEQYNSTYRVVSVLTVLHQDWLNGKEYKCKVSNKALPAPIEKTISKAKGQPREPQVYTLPPSREEMTKNQVSLTCLVKGFYPSDIAVEWESNGQPENNYKTTPPVLDSDGSFFLYSRLTVDKSRWQQGNVFSCSVMHEALHNHYTQKSLSLSPGK light 2: AYDMTQTPASVEAAVGGTVTIKCQASQNIENYLAWYQQKPGQPPKLLIYDTSKLTSGVPSRFSGSGSGTDFTLTISGVQSDDAATYYCQQDYGIIFVDNIFGGGTEVVVKRTVAAPSVFIFPPSDEQLKSGTASVVCLLNNFYPREAKVQWKVDNALQSGNSQESVTEQDSKDSTYSLSSTLTLSKADYEKHKVYACEVTHQGLSSPVTKSFNRGEC
~100	~100	CD40-001-FEALxCD137-003-FEAR (bispecific antibody, human IgG1, kappa) heavy 1: EVQLQQSGPDLVKPGASVKISCKTSGYTFTEYIMHWVKQSHGKSLEWIGGIIPNNGGTSYNQKFKDKATMTVDKSSSTGYMELRSLTSEDSAVYYCTRREVYGRNYYALDYWGQGTLVTVSSASTKGPSVFPLAPSSKSTSGGTAALGCLVKDYFPEPVTVSWNSGALTSGVHTFPAVLQSSGLYSLSSVVTVPSSSLGTQTYICNVNHKPSNTKVDKRVEPKSCDKTHTCPPCPAPEFEGGPSVFLFPPKPKDTLMISRTPEVTCVVVAVSHEDPEVKFNWYVDGVEVHNAKTKPREEQYNSTYRVVSVLTVLHQDWLNGKEYKCKVSNKALPAPIEKTISKAKGQPREPQVYTLPPSREEMTKNQVSLTCLVKGFYPSDIAVEWESNGQPENNYKTTPPVLDSDGSFLLYSKLTVDKSRWQQGNVFSCSVMHEALHNHYTQKSLSLSPGK light 1: DIQMTQTTSSLSASLGDRVTITCSASQGINNYLNWYQQKPDGTVKLLIYYTSSLHSGVPSRFSGSGSGTDYSLTISNLEPEDIATYYCQQYSNLPYTFGGGTKLEIKRTVAAPSVFIFPPSDEQLKSGTASVVCLLNNFYPREAKVQWKVDNALQSGNSQESVTEQDSKDSTYSLSSTLTLSKADYEKHKVYACEVTHQGLSSPVTKSFNRGEC heavy 2: QSVEESGGRLVTPGTPLTLTCTASGFTISSYHMIWVRQAPGEGLEWIGDIYGGTATTDYASWAKGRFTISKTSTTVDLKMTSLTTEDTATYFCARARYSGGSYANYVFNLWGQGTLVTVSSASTKGPSVFPLAPSSKSTSGGTAALGCLVKDYFPEPVTVSWNSGALTSGVHTFPAVLQSSGLYSLSSVVTVPSSSLGTQTYICNVNHKPSNTKVDKRVEPKSCDKTHTCPPCPAPEFEGGPSVFLFPPKPKDTLMISRTPEVTCVVVAVSHEDPEVKFNWYVDGVEVHNAKTKPREEQYNSTYRVVSVLTVLHQDWLNGKEYKCKVSNKALPAPIEKTISKAKGQPREPQVYTLPPSREEMTKNQVSLTCLVKGFYPSDIAVEWESNGQPENNYKTTPPVLDSDGSFFLYSRLTVDKSRWQQGNVFSCSVMHEALHNHYTQKSLSLSPGK light 2: DIVMTQTPASVEAAVGGTVTIKCQASQSISSYLAWYQQKPGQPPKLLIYRTSTLESGVPSRFKGSGSGTEFTLTISDLESADAATYYCQGYDWSSSNRYDNTFGGGTEVVVKRTVAAPSVFIFPPSDEQLKSGTASVVCLLNNFYPREAKVQWKVDNALQSGNSQESVTEQDSKDSTYSLSSTLTLSKADYEKHKVYACEVTHQGLSSPVTKSFNRGEC
~100	~100	CD40-001-FEALxCD137-002-FEAR (bispecific antibody, human IgG1, kappa) heavy 1: EVQLQQSGPDLVKPGASVKISCKTSGYTFTEYIMHWVKQSHGKSLEWIGGIIPNNGGTSYNQKFKDKATMTVDKSSSTGYMELRSLTSEDSAVYYCTRREVYGRNYYALDYWGQGTLVTVSSASTKGPSVFPLAPSSKSTSGGTAALGCLVKDYFPEPVTVSWNSGALTSGVHTFPAVLQSSGLYSLSSVVTVPSSSLGTQTYICNVNHKPSNTKVDKRVEPKSCDKTHTCPPCPAPEFEGGPSVFLFPPKPKDTLMISRTPEVTCVVVAVSHEDPEVKFNWYVDGVEVHNAKTKPREEQYNSTYRVVSVLTVLHQDWLNGKEYKCKVSNKALPAPIEKTISKAKGQPREPQVYTLPPSREEMTKNQVSLTCLVKGFYPSDIAVEWESNGQPENNYKTTPPVLDSDGSFLLYSKLTVDKSRWQQGNVFSCSVMHEALHNHYTQKSLSLSPGK light 1: DIQMTQTTSSLSASLGDRVTITCSASQGINNYLNWYQQKPDGTVKLLIYYTSSLHSGVPSRFSGSGSGTDYSLTISNLEPEDIATYYCQQYSNLPYTFGGGTKLEIKRTVAAPSVFIFPPSDEQLKSGTASVVCLLNNFYPREAKVQWKVDNALQSGNSQESVTEQDSKDSTYSLSSTLTLSKADYEKHKVYACEVTHQGLSSPVTKSFNRGEC heavy 2: QSVEESGGRLVTPGTPLTLTCTVSGFSLTYYAVTWVRQPPGKGLEWIGVIYDNGATAFATWAKGRFTMSKNSTTVALKVTSPTTEDTATYFCARSANNAWSTYSNLWGQGTLVTVSSASTKGPSVFPLAPSSKSTSGGTAALGCLVKDYFPEPVTVSWNSGALTSGVHTFPAVLQSSGLYSLSSVVTVPSSSLGTQTYICNVNHKPSNTKVDKRVEPKSCDKTHTCPPCPAPEFEGGPSVFLFPPKPKDTLMISRTPEVTCVVVAVSHEDPEVKFNWYVDGVEVHNAKTKPREEQYNSTYRVVSVLTVLHQDWLNGKEYKCKVSNKALPAPIEKTISKAKGQPREPQVYTLPPSREEMTKNQVSLTCLVKGFYPSDIAVEWESNGQPENNYKTTPPVLDSDGSFFLYSRLTVDKSRWQQGNVFSCSVMHEALHNHYTQKSLSLSPGK light 2: DIVMTQTPSSVSAAVGGTVTINCQASEDISSYLSWYQQKLGQPPKLLIYKASTLESGVPSRFKGSGSGTEYTLTISDLESDDAATYYCQSYYSGSISGYGFVFGGGTGVVVKRTVAAPSVFIFPPSDEQLKSGTASVVCLLNNFYPREAKVQWKVDNALQSGNSQESVTEQDSKDSTYSLSSTLTLSKADYEKHKVYACEVTHQGLSSPVTKSFNRGEC
~100	~100	CD40-001-FEALxCD137-012-FEAR (bispecific antibody, human IgG1, kappa) heavy 1: EVQLQQSGPDLVKPGASVKISCKTSGYTFTEYIMHWVKQSHGKSLEWIGGIIPNNGGTSYNQKFKDKATMTVDKSSSTGYMELRSLTSEDSAVYYCTRREVYGRNYYALDYWGQGTLVTVSSASTKGPSVFPLAPSSKSTSGGTAALGCLVKDYFPEPVTVSWNSGALTSGVHTFPAVLQSSGLYSLSSVVTVPSSSLGTQTYICNVNHKPSNTKVDKRVEPKSCDKTHTCPPCPAPEFEGGPSVFLFPPKPKDTLMISRTPEVTCVVVAVSHEDPEVKFNWYVDGVEVHNAKTKPREEQYNSTYRVVSVLTVLHQDWLNGKEYKCKVSNKALPAPIEKTISKAKGQPREPQVYTLPPSREEMTKNQVSLTCLVKGFYPSDIAVEWESNGQPENNYKTTPPVLDSDGSFLLYSKLTVDKSRWQQGNVFSCSVMHEALHNHYTQKSLSLSPGK light 1: DIQMTQTTSSLSASLGDRVTITCSASQGINNYLNWYQQKPDGTVKLLIYYTSSLHSGVPSRFSGSGSGTDYSLTISNLEPEDIATYYCQQYSNLPYTFGGGTKLEIKRTVAAPSVFIFPPSDEQLKSGTASVVCLLNNFYPREAKVQWKVDNALQSGNSQESVTEQDSKDSTYSLSSTLTLSKADYEKHKVYACEVTHQGLSSPVTKSFNRGEC heavy 2: QSVEESGGRLVTPGTPLTLTCTVSGFSLSDYYMTWVRQAPGKGLEYIGIMSGSGSTYYASWAKGRFTISKTSSTTLELKITSPTTEDTAIYFCARDGDYAGWGYATGAFDPWGPGTLVTVSSASTKGPSVFPLAPSSKSTSGGTAALGCLVKDYFPEPVTVSWNSGALTSGVHTFPAVLQSSGLYSLSSVVTVPSSSLGTQTYICNVNHKPSNTKVDKRVEPKSCDKTHTCPPCPAPEFEGGPSVFLFPPKPKDTLMISRTPEVTCVVVAVSHEDPEVKFNWYVDGVEVHNAKTKPREEQYNSTYRVVSVLTVLHQDWLNGKEYKCKVSNKALPAPIEKTISKAKGQPREPQVYTLPPSREEMTKNQVSLTCLVKGFYPSDIAVEWESNGQPENNYKTTPPVLDSDGSFFLYSRLTVDKSRWQQGNVFSCSVMHEALHNHYTQKSLSLSPGK light 2: AAVLTQTPSPVSAAVGGTVTISCQASQSVVGNSLLSWFQKKPGQPPKLLIYSASSLASGVPSRFKGSGSGTQFTLTISDLESDDAATYYCTGRYNSDTDTFVFGGGTEVVVKRTVAAPSVFIFPPSDEQLKSGTASVVCLLNNFYPREAKVQWKVDNALQSGNSQESVTEQDSKDSTYSLSSTLTLSKADYEKHKVYACEVTHQGLSSPVTKSFNRGEC
